These results are taken from IntAct's records for PubMed 9990021.

To fix the notation:
B1: X-linked retinitis pigmentosa GTPase regulator (Homo sapiens), Q92834-2 (parent)
chain: MREPEELMPDSGAVFTFGKSKFAENNPGKFWFKNDVPVHLSCGDEHSAVVTGNNKLYMFGSNNWGQLGLGSKSAISKPTCVKALKPEKVKLAACGRNHTLVSTEGGNVYATGGNNEGQLGLGDTEERNTFHVISFFTSEHKIKQLSAGSNTSAALTEDGRLFMWGDNSEGQIGLKNVSNVCVPQQVTIGKPVSWISCGYYHSAFVTTDGELYVFGEPENGKLGLPNQLLGNHRTPQLVSEIPEKVIQVACGGEHTVVLTENAVYTFGLGQFGQLGLGTFLFETSEPKVIENIRDQTISYISCGENHTALITDIGLMYTFGDGRHGKLGLGLENFTNHFIPTLCSNFLRFIVKLVACGGCHMVVFAAPHRGVAKEIEFDEINDTCLSVATFLPYSSLTSGNVLQRTLSARMRRRERERSPDSFSMRRTLPPIEGTLGLSACFLPNSVFPRCSERNLQESVLSEQDLMQPEEPDYLLDEMTKEAEIDNSSTVESLGETTDILNMTHIMSLNSNEKSLKLSPVQKQKKQQTIGELTQDTALTENDDSDEYEEMSEMKEGKACKQHVSQGIFMTQPATTIEAFSDEEVEIPEEKEGAEDSKGNGIEEQEVEANEENVKVHGGRKEKTEILSDDLTDKAEDHEFSKTEELKLEDVDEEINAENVESKKKTVGDDESVPTGYHSKTEGAERTNDDSSAETIEKKEKANLEERAICEYNENPKGYMLDDADSSSLEILENSETTPSKDMKKTKKIFLFKRVPSINQKIVKNNNEPLPEIKSIGDQIILKSDNKDADQNHMSQNHQNIPPTNTERRSKSCTIL

In this assay the parent is B1. Conditions: with pde6d_mouse Pde6d.
G215V: the “effect of a mutation on the interaction” value is listed as “disrupting interaction”.
For the variant H98Q, the “effect of a mutation on the interaction” value was “disrupting interaction”.
Then C250R, with “disrupting interaction”; and P235S, with “decreasing interaction”; and G275S, with “disrupting interaction”.
To F130C belongs “disrupting interaction”.
